Data reported in article PMC7961048, “Hierarchized phosphotarget binding by the seven human 14-3-3 isoforms” (Nature Communications, 2021).
No end group written: not given here.

Columns and labels:
Assay in all cases: fluorescence polarisation
Conditions in all cases: both partners purified
[1] = biological target: T1, full-length human 14-3-3τ fused to the C terminus of MBP (human, UniProt P27348 1-245)
T1 construct: not shown: MBP (crystallisable mutant), N-terminal, kept
T1 sequence (looked up): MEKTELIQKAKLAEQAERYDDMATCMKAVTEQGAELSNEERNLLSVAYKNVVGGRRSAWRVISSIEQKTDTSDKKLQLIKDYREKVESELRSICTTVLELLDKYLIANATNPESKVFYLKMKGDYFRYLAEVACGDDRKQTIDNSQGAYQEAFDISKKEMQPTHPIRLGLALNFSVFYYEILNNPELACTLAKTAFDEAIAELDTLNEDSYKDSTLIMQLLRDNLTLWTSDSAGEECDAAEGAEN

[2] = biological target: T2, full-length human 14-3-3ε fused to the C terminus of MBP (human, UniProt P62258 1-255)
T2 construct: not shown: MBP (crystallisable mutant), N-terminal, kept
T2 sequence (looked up): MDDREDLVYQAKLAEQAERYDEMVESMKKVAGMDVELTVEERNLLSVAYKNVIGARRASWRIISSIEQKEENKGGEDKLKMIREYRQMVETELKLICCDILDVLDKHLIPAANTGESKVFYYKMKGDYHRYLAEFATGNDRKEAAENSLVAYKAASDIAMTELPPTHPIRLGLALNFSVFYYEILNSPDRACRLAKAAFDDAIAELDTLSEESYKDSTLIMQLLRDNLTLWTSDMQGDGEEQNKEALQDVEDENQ

[3] = biological target: T3, full-length human 14-3-3ζ fused to the C terminus of MBP (human, UniProt P63104 1-245)
T3 construct: not shown: MBP (crystallisable mutant), N-terminal, kept
T3 sequence (looked up): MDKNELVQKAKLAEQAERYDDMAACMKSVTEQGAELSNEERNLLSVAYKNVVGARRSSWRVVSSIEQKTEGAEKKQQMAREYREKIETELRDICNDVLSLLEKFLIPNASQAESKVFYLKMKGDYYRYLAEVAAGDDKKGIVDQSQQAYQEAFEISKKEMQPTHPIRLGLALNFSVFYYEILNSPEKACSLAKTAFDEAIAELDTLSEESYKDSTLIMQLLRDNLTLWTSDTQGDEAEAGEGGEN

[4] = biological target: T4, full-length human 14-3-3η fused to the C terminus of MBP (human, UniProt Q04917 1-246)
T4 construct: not shown: MBP (crystallisable mutant), N-terminal, kept
T4 sequence (looked up): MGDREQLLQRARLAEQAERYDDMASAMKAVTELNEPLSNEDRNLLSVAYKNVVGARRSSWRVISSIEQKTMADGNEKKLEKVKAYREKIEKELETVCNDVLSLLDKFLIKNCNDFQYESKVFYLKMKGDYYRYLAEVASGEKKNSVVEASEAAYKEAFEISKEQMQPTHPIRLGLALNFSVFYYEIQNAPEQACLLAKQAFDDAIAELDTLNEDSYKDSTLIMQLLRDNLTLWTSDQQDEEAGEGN

[5] = biological target: T5, full-length human 14-3-3σ fused to the C terminus of MBP (human, UniProt P31947 1-248)
T5 construct: not shown: MBP (crystallisable mutant), N-terminal, kept
T5 sequence (looked up): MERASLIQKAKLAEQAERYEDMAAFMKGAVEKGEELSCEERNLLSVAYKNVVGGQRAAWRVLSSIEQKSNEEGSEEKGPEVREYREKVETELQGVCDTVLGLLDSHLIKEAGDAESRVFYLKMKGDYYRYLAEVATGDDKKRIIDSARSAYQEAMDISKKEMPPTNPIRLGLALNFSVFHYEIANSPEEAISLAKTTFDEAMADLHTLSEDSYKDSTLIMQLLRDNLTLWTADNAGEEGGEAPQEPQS

[6] = biological target: T6, full-length human 14-3-3γ fused to the C terminus of MBP (human, UniProt P61981 1-247)
T6 construct: not shown: MBP (crystallisable mutant), N-terminal, kept
T6 sequence (looked up): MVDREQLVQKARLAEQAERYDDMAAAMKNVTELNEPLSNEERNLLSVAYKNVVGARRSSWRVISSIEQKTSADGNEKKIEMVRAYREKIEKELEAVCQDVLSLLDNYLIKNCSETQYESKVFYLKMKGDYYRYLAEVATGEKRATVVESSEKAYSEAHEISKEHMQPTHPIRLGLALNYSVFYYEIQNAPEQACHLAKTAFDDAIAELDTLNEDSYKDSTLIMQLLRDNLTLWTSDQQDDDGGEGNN

[7] = biological target: T7, full-length human 14-3-3β fused to the C terminus of MBP (human, UniProt P31946 1-246)
T7 construct: not shown: MBP (crystallisable mutant), N-terminal, kept
T7 sequence (looked up): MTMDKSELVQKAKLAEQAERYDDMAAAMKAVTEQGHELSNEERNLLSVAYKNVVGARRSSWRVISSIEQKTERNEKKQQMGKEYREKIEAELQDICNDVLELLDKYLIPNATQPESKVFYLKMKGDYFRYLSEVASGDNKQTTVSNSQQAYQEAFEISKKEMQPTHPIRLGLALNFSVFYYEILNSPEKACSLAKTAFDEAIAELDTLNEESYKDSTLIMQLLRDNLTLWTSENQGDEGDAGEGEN

Measured: binding result

B1: RSK1 phospho-PBM peptide RSK1_-1P (peptide)
peptide: RRVRKLPSTTL
modifications: not fully specified (residue 10)
notes: source: synthetic peptide (in-house, Fmoc)
binds: all assays above

B2: fluorescently labeled HSPB6 phosphopeptide (fpB6) (peptide)
peptide: WLRRASAPLPGLK
modifications: also: phosphorylation, site not given here, fluorescent label, unspecified
notes: also called FITC-labeled HSPB6 phosphopeptide; tracer; source: synthetic peptide, amino-terminal FITC labeling
binds: all assays above

B3: RSK1 phospho-PBM peptide RSK1_-2P (peptide)
peptide: RRVRKLPSTTL
modifications: not fully specified (residue 9)
notes: as for B1
binds: all assays above
